Data on 8 molecules can be found in US20060024297A1 (published 2006).

For assay [1], the target named is T1, endogenous human Tie1 of primary human endothelial cells (HDMEC/HDMVEC, HUVEC) and human tissues (human, UniProt P35590 25-1138).
T1 construct: also called endogenous Tie1; Tie-1 in HUVEC
Description: Western blot, HDMEC. Here is the method:
(§1) COS1 cells were transfected with pcDNA3-Tie1-V5 (1 μg DNA per 10 cm cell culture plate) using FUGENE 6 (Roche) according to manufacturer's instruction and incubated for 48 h before stimulation. For immunoprecipitation, Tie1 transfected cells and HMVEC cells were lysed in DOC-RIPA lysis buffer (50 mM Tris-HCl pH 8.0, 150 mM NaCl, 1% Triton-X-100, 0.1% SDS, 1% DOC, 10 mM EDTA) supplemented with aprotinin, leupeptin, PMSF and sodium vanadate. Immunoprecipitation was carried out from equal amount of cell lysates by incubating with polyclonal anti-human Tie1 antibodies (R&D), monoclonal anti-V5 antibodies (Invitrogen) or altogether 23 anti-Tie1 antibodies (1μg/ml) for 1 to 2 h followed by incubation with protein G-Sepharose (Amersham Pharmacia Biotech AB) for 1 h. The immunoprecipitates were washed twice with PBS-T and twice with PBS, followed by elution with the Laemmli buffer and separation in 8% SDS-PAGE. The blots were probed with the 23 anti-Tie1 antibodies (5 μg/ml) and subsequently anti-human Fc antibodies conjugated with HRP.
(§2) Next, to find out if the anti-Tie1 antibodies recognize Tie1 in living cells, those cells were studied by immunofluorescence staining.

Assay [2] concerns the target T2, human Tie1, full length, V5-tagged (pcDNA3-Tie1-V5), in transiently transfected COS1 cells (human, UniProt P35590 25-1138).
T2 construct: it is not expressly tied to the pcDNA3-Tie1-V5 construct; also called Tie1-transfected; transfected Tie1
The experiment in a line: Western blot, Tie1-V5-transfected COS1. The procedure: as §1, §2

The target of assay [3] is T3, recombinant human Tie1-Fc (Tie1 extracellular domain fused to human Fc) (human, UniProt P35590 25-759).
T3 construct: also called Tie-1 Fc Human; not shown: human Fc
T3 sequence: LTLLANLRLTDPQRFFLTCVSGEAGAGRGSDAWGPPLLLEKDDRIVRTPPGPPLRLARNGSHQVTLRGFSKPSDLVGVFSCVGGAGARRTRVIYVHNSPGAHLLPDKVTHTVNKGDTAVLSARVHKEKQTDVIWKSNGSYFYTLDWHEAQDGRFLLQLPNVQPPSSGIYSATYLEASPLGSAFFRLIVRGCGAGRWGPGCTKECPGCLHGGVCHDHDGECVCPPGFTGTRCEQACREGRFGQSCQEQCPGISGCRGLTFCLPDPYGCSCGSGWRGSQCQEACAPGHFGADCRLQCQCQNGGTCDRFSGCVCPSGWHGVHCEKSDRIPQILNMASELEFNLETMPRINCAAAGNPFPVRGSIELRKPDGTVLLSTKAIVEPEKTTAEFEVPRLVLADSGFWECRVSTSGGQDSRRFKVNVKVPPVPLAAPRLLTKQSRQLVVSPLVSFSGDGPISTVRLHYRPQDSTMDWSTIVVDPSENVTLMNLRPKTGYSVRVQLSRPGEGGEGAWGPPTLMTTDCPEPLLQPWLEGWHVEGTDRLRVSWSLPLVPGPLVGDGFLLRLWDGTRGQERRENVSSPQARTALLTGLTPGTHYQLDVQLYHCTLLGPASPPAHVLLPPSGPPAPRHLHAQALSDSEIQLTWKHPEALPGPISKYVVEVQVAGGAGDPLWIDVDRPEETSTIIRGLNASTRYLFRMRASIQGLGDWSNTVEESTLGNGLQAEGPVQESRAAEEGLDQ
Description: BIAcore, Fab over biotinylated human Tie1-Fc on streptavidin chip, 1:1 fit. Here is the method:
Recombinant purified human Tie1-Fc antigen (Stock 2.45 mg/ml) was biotinylated using the EZ-link Sulfo-NHS-SS-Biotin (Pierce, Cat. 21331). The reaction was performed for 2 hours on ice in 50 mM sodium carbonate buffer, pH 9.6, in the presence of a 5-fold molar excess of biotinylating agent and was stopped by the addition of Tris-HCl, pH 7.5 (50 mM final concentration) followed by a 1-hour incubation on ice. Samples were then dialyzed against PBS. The antigen was then diluted 1/100 fold in HBS and was then captured onto a streptavidin chip. This was coated to a density of 830RU (resonance units). All analysis was performed in HBS buffer. […] Serial dilutions were made of each Fab preparation to obtain 10 nM, 5 nM, 2.5 nM, and 1.25 nM solutions. For the association phase samples were injected at 30 μl/min for 4 minutes using kinject program. This was followed by a 10 minutes dissociation phase, any remaining sample was stripped from the Tie-1 Fc surface at a flow of 50 μl/min with a single injection of 5 mM NaOH+1M NaCl for 18 seconds. All samples were run and analyzed in duplicate.
(§3) Sensorgrams were analyzed using the simultaneous ka/kd fitting program with 1:1 model in the BIAEVALUATION™ software 3.1.

Assay [4] has as its target T4, recombinant mouse Tie1-Fc (mouse, UniProt Q06806 23-755, limits assumed).
T4 construct: also called Tie-1 Fc Mouse; not shown: Fc
T4 sequence (looked up): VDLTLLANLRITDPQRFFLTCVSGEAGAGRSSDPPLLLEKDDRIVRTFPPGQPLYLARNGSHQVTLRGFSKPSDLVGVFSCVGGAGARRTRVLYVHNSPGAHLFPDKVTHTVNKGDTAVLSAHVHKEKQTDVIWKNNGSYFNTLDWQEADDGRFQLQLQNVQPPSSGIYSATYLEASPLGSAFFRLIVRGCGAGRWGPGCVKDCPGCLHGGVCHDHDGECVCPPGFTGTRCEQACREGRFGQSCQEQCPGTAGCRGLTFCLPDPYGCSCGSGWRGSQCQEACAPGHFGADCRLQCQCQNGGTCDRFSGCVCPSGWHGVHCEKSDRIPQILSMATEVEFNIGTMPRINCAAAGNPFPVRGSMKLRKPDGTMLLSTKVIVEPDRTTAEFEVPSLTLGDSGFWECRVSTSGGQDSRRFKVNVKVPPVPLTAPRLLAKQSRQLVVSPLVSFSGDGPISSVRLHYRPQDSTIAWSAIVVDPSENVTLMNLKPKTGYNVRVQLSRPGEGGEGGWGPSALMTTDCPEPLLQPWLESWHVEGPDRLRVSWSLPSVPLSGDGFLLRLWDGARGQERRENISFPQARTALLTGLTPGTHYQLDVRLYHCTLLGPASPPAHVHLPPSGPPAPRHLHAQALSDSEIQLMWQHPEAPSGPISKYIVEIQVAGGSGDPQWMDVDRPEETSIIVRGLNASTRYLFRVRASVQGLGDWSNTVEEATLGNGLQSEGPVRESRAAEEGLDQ
Description: BIAcore, Fab over biotinylated mouse Tie1-Fc on streptavidin chip, 1:1 fit. Here is the method:
Mouse Tie 1-Fc antigen (0.5 mg/ml stock) was biotinylated using established procedures and after dilution 1/100 fold in HBS this was then used for capturing to a streptavidin chip. This was coated to a resonance value of 740RU. All analysis was performed in HBS buffer. […] Serial dilutions were made of each Fab preparation to obtain 10 nM, 5 nM, 2.5 nM, and 1.25 nM. For the association phase samples were injected at 30 μl/min for 4 minutes using kinject program. This was followed by a 10 minutes dissociation phase, any remaining sample was stripped from the Tie-1 Fc surface at a flow of 50 μl/min with a single injection of 50 mM NaOH+1 M NaCl for 18 seconds. All samples were run and analyzed in duplicate.
as §3

The target in assay [5] is T3, recombinant human Tie1-Fc (Tie1 …). Description: BIAcore, Fab over human Tie-1/Fc coupled to CM5 chip, 1:1 fit. The procedure: Recombinant human Tie-1/Fc was coated on a CM5 chip. The surface of the chip was first activated with a 7-minute pulse of 0.05 M NHS/0.2 M EDC, then Tie-1/Fc (2 μg/ml in 10 mM sodium acetate, pH 4.0) was run over the chip surface until 750 RUs were coated on the surface. All flow cells were subsequently deactivated with a 7-minute pulse of 1 M ethanolamine hydrochloride, pH 8.5. All further experiments were performed in HBS buffer.
A series of dilution (50, 25, 12.5, 6.25 and 3.125 nM) was prepared in HBS buffer. Samples were injected at 30 μl/min for 5.3 minutes using the KINJECT™ program. This was followed by a 10-minute dissociation phase, and the remaining Fab was stripped from the surface with a single 18-sec injection of 50 mM NaOH/1 M NaCl.
Sensorgrams were analyzed using the simultaneous ka/kd fitting program from the BIAEVALUATION™ software 3.1 assuming a 1:1 model.
Background: Surface plasmon resonance follows binding to a sensor surface in real time, without labels.

Substitutions are numbered along the chain they refer to.

B1: P-F3 IgG (anti-Tie1 isolate p-F3, human IgG1) (antibody, V domains shown)
VH: EVQLLESGGGLVQPGGSLRLSCAASGFTFSMYGMGWVRQAPGKGLEWVSVISPSGGQTAYADSVKGRFTISRDNSKNTLYLQMNSLRAEDTAVYYCARVALLLGHAFDIWGQGTMVTVSS
VL: DIQMTQSPSTLSASLGDRVTITCRASESISRWLAWYQQKPGKAPKLLMYEASTLESGVPSRFTGTGSGTEFTLTISSLQPDDFATYYCQQRSNWPLTFGGG
notes: the VL entry stops within FR4
Regarding B1, the binding result in assay [1] and in assay [2] was “binds” in each case.

B2: germlined E3 Fab (light chain framework regions germlined to DPK4; heavy chain as parental) (Fab, V domains shown)
VH: EVQLLESGGGLVQPGGSLRLSCAASGFTFSMYGMVWVRQAPGKGLEWVSVISPSGGNTGYADSVKGRFTISRDNSKNTLYLQVNSLRAEDTAVYYCARAPRGYSYGYYYWGQGTLVTVSS
VL: DIQMTQSPSSLSASVGDRVTITCRASQGIGHYLAWYQQKPGKVPKLLIYTASTLQSGVPSRFSGSGSGTDFTLTISSLQPEDVATYYCQQFNSYPHTFGQGTRLEIK
notes: also called germlined Fab E3; E3 germlined
For B2, in assay [3], the Kd came out at 3.4 nM, the koff was determined as 0.00102 s⁻¹ and the kon amounted to 300000 M⁻¹ s⁻¹. Also, in assay [4], the Kd was determined as 3.1 nM, the koff was 0.00104 s⁻¹ and the kon is 340000 M⁻¹ s⁻¹.

B3: E3 Fab (parental, soluble Fab) (Fab, V domains shown)
VH: B2 VH
VL: B2 VL with S9L, S76N, E105D
notes: also called parental E3 Fab; parental Fab E3
With B3, the Kd in assay [5] amounted to 12 nM; in assay [3], 2 nM; in assay [4], 3.9 nM. The koff in assay [5] came out at 0.00105 s⁻¹; in assay [3], 0.00061 s⁻¹; in assay [4] it was 0.00095 s⁻¹. Besides, the kon in assay [5] worked out at 88100 M⁻¹ s⁻¹; in assay [3], 300000 M⁻¹ s⁻¹; in assay [4], 246000 M⁻¹ s⁻¹.

B4: E3b Fab (germlined heavy chain and germlined light chain of E3) (Fab, V domains shown)
VH: B2 VH with V83M
VL: B2 VL
notes: also called Fab E3b; germlined (E3b)
On to B4, for which, in assay [5], the Kd stood at 7 nM, the koff was 0.00101 s⁻¹ and the kon was 136000 M⁻¹ s⁻¹.

B5: P-C6 IgG (anti-Tie1 isolate p-C6, human IgG1) (antibody, V domains shown)
VH: EVQLLESGGGLVQPGGSLRLSCAASGFTFSHYGMTWVRQAPGKGLEWVSVISPSGGQTGYADSVKGRFTISRDNSKNTLYLQMNSLRAEDTAVYYCAGGGYAAFDYWGQGTLVTVSS
VL: DIQMTQSPATLSLSPGERATLSCRASQSVSSYLAWYQQKPGQAPRLLIYDASNRATGIPARFSGSGSGTDFTLTISSLEPEDFAVYYCQQRSNWPLTFGGG
notes: the VL entry stops within FR4
With B5, the binding result in assay [1] and in assay [2] was “binds” throughout.

B6: P-G3 IgG (anti-Tie1 isolate p-G3, human IgG1) (antibody, V domains shown)
VH: EVQLLESGGGLVQPGGSLRLSCAASGFTFSHYMMVWVRQAPGKGLEWVSSIYPSGGWTYYADSVKGRFTISRDNSKNTLYLQMNSLRAEDTAVYYCARLDYGGNSAYFDYWGQGTLVTVSS
VL: QSVLTQPHSVSASPGKTVTISCTRSSGNIASNFVQWYQQRPGSVPTTVIYEDDRRPSGVPDRFSGSIDSSSNSAFLSISGLKTEDEADYYCQSHDRTTRAWVFGGGTKL
notes: lambda VL entry stops within FR4
As for B6, the binding result in assay [1] and in assay [2] was “binds” each time.

B7: P-D12 IgG (anti-Tie1 isolate p-D12, human IgG1) (antibody, V domains shown)
VH: EVQLLESGGGLVQPGGSLRLSCAASGFTFSGYGMHWVRQAPGKGLEWVSVISPSGGQTSYADSVKGRFTISRDNSKNTLYLQMNSLRAEDTAVYYCARDRQYYYGSGSLDYWGQGTLVTVSS
VL: DIQMTQSPSSLSASVGDRVTVTCRASQSISSYLNWYQQKPGKAPKLLIYAASSLQSGVPSRFSGGGSGTDFTLTISSLQPEDFATYFCLQDYKYPWTFGQG
notes: the VL entry stops within FR4
Take B7: the binding result in assay [1] and in assay [2] was “binds” in each case.

B8: P-F4 IgG (anti-Tie1 isolate p-F4, human IgG1) (antibody, V domains shown)
VH: EVQLLESGGGLVQPGGSLRLSCAASGFTFSAYMMSWVRQAPGKGLEWVSSIYPSGGYTYYADSVKGRFTISRDNSKNTLYLQMNSLRAEDTAVYYCARGLRGGPDYWGQGTLVTVSS
VL: DIQMTQSPSTLSAYVGDSVTITCRASQSVRRSLAWYQQRPGKAPKSLIYKASTLETGVPPRFSGSGSGTEFTLTISSLQPEDSAIYYCQQYGSFPLTFGGG
notes: the VL entry stops within FR4
In the case of B8, the binding result in assay [1] and in assay [2] was “binds” each time.

The term Kd denotes the concentration at which binding is half-saturated. In general, koff refers to the rate constant with which the complex falls apart. Usually kon stands for the rate constant with which the complex forms.
